# From patent publication US20050209148A1 (RINAT NEUROSCIENCE, published 2005)
# Numbering of substitutions follows the chain as printed. Like-named read-outs stand apart in the source and are kept apart here.
# B1: human NT-4/5 (mature human neurotrophin-4/5) (ligand)
# chain: GVSETAPASRRGELAVCDAVSGWVTDRRTAVDLRGREVEVLGEVPAAGGSPLRQYFFETRCKADNAEEGGPGAGGGGCRGVDRRHWVSECKAKQSYVRALTADAQGRVGWRWIRIDTACVCTLLSRTGRA
# B2: 1PEG-NT4-G1S (ligand)
# chain 1: B1 chain with G1S
# chain 2: B1 chain with G1S
# modifications: no PEG; N-terminal serine (position 1) treated with periodate (oxidized to an aldehyde); N-terminal serine (position 1) oxidized to an aldehyde and linked to 20K-m-PEG-HZ (methoxy polyethylene glycol hydrazide, 20 kDa)
# B3: 2PEG-NT4-G1S (ligand)
# chain: B1 chain with G1S
# modifications: N-terminal serine (position 1) oxidized to an aldehyde and linked to 20K-m-PEG-HZ (methoxy polyethylene glycol hydrazide, 20 kDa)
# Experiments:
# [1] = biological target: T1, human TrkB expressed on a stable cell line (human, UniProt Q16620 32-822); assay: cell-based or functional assay
# [2] = biological target: T1, human TrkB expressed on a stable cell …; assay: cell-based or functional assay; remark: listed apart in the source
# T1 sequence (Q16620 32-822): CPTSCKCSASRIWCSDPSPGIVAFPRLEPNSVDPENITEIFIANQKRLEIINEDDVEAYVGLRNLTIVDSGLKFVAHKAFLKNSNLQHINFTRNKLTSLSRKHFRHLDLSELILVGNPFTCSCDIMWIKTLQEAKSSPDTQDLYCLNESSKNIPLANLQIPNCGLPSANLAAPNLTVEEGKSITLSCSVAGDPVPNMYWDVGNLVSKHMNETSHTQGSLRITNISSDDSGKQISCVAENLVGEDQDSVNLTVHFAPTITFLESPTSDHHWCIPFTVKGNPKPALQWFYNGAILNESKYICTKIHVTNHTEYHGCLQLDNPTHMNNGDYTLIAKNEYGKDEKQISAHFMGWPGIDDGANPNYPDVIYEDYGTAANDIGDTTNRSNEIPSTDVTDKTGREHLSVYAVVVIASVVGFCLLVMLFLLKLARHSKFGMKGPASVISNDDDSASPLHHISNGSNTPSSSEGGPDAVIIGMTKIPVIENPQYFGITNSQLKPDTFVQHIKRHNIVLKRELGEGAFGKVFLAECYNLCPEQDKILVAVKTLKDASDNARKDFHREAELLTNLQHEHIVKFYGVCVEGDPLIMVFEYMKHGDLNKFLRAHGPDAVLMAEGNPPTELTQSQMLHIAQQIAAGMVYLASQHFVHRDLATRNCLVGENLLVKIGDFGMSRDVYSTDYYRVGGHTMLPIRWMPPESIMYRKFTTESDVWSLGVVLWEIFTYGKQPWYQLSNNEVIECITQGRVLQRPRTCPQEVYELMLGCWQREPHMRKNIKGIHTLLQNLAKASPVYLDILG
Binder,"EC50 (read off the curve), receptor tyrosine phosphorylation in trkB expressing cell line [1] [nM]","EC50 (read off the curve), receptor tyrosine phosphorylation in trkB expressing cell line [2] [nM]"
B1,~0.2,~0.7
B2,,~1
B3,,~1
